Source: patent US20220127354A1 (Amgen, published 2022)

B1: hu anti-<huCDH19> 26F12.1 (Ab ID 13881) (antibody, human IgG1, lambda, V domains shown)
VH: QVQLVQSGAEVKKPGASVKVSCKASRYTFTNYYMSWVRQAPGQGLEWMGIINPSGGDSTYAQKFQGRLTMTGDTSTSTVYMELSSLRSEDTAVYYCARGGIQLWLHFDYWGQGTLVTVSS
VL: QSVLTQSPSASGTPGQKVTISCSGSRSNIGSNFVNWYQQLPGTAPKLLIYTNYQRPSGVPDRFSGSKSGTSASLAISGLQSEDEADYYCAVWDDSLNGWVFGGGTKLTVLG
notes: huIgG1z / huLLC-C2; Bin 2; also called 27B3
B2: hu anti-<huCDH19> 17H8.2 (Ab ID 13874) (antibody, human IgG1, kappa, V domains shown)
VH: QVQLQESGPGLVKPSETLSLTCTVSGGSINSYYWSWIRQPPGKGLEWIGYIYYIGSTNYNPSLKSRVTISVDTSKNQFSLKLSSVTAADTALYYCARDSRYRSGWYDAFDIWGQGTMVTVSS
VL: DIVLTQSPGTLSLSPGERATLSCRASQSVAGSYLAWYQQKPGQAPRLLISGASSRATGIPDRFSGSGSGTDFTLTISRLEPEDFAVYYCQQYGKSPITFGQGTRLEMKG
notes: huIgG1z / huKLC; Bin 3; also called 23B6; 28D10
B3: hu anti-<huCDH19> 4B10 (1-471)(R17G) VH::huIgG1z + 4B10 (1-236)(H45Q,A90T) VL::huKLC (Ab ID 14054) (antibody, V domains shown)
VH: QVQLVESGGGVVQPGGSLRLSCAASGFTFSSYDMHWVRQAPGKGLEWVAVISYDGTNEYYADSVKGRFTISRDTSKNTLYLQMNSLRAEDTAVYYCARERYFDWSFDYWGQGTLVSVSS
VL: EIVLTQSPGTLSLSPGERATLSCRASQSVSNTYLAWYQQRPGQAPRLLIYGASSRATGIPDRFSGSGSGTDFTLTISSLEPEDFAVYYCQQYSNSWTFGQGTKVEIKR
notes: Engineered variant of 4B10; the entries already carry the changes; Bin 4
B4: hu anti-<huCDH19> 4A2 (1-472)(Q17E,H47P) VH::huIgG1z + 4A2 (1-236)(N30Q,T102A) VL::huKLC (Ab ID 14026) (antibody, V domains shown)
VH: QVQLQESGPGLVKPSETLSLTCTVSGGSISSSGYYWSWIRQPPGKGLEWIGYIYYTGSAYYNPSLKSRVTISVDTSKNQFSLKLSSVTAADTAVYYCARDGSSGWYFQYWGQGTLVTVSS
VL: EIVLTQSPGTLSLSPGERATLSCRASRQISSSYLAWYQQKPGQAPRLLIYGPSSRATGIPDRFSGSGSGTDFTLTISRLEPEDFAVYYCQQYGSSFTFGPGTKVDIKR
notes: Engineered variant of 4A2; the entries already carry the changes; Bin 4

Legend:
[1] = biological target: T1, muCDH19(44-770) with Flag tag (construct I, Mu EC1-5) (mouse); assay: flow cytometry, transfected 293T cells, 2 mM CaCl2
T1 construct: leader left out; the entry starts at residue 44; also called Mo EC1-5; mouse Cadherin19
T1 chain: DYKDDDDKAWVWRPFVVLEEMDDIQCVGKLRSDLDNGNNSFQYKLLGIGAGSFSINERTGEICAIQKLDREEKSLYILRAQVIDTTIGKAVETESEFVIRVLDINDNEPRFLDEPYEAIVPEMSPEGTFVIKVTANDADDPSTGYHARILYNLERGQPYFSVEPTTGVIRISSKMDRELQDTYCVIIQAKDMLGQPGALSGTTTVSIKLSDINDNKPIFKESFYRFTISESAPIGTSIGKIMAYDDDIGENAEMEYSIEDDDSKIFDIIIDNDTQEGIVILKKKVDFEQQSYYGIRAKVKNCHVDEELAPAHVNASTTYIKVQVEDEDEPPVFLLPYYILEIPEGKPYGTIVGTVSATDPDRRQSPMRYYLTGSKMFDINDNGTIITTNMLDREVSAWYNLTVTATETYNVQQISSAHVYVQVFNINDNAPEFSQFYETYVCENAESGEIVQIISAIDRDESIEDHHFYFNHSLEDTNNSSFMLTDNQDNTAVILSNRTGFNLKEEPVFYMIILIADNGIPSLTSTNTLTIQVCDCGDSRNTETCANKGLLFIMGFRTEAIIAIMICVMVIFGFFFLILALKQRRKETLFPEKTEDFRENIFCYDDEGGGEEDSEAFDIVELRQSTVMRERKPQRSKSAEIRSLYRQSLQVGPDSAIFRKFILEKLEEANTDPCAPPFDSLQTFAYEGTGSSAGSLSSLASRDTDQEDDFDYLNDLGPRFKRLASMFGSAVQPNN
Method: (§1) The following binding assay was completed in presence of 2 mM CaCl₂). […] Cells were then washed one time and the amount of cell associated Alexa647-labelled Ab was quantitated by flow cytometry. The experiments included mock transfected controls.

[2] = biological target: T2, ckCDH19(1-43)::FLAG::ckCDH19(44-468)::huCDH19(464-772) (construct O, Hu EC5) (human/chicken chimera); assay: flow cytometry, transfected 293T cells, 2 mM CaCl2;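 also: binding of Alexa647-labelled anti-CDH19 antibodies to cells expressing human/chicken CDH19 chimeras, read as cell-bound fluorescence, with mock-transfected cells as controls, n.d. meaning not determined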
T2 construct: leader (1-43 of the entry) left out
T2 chain: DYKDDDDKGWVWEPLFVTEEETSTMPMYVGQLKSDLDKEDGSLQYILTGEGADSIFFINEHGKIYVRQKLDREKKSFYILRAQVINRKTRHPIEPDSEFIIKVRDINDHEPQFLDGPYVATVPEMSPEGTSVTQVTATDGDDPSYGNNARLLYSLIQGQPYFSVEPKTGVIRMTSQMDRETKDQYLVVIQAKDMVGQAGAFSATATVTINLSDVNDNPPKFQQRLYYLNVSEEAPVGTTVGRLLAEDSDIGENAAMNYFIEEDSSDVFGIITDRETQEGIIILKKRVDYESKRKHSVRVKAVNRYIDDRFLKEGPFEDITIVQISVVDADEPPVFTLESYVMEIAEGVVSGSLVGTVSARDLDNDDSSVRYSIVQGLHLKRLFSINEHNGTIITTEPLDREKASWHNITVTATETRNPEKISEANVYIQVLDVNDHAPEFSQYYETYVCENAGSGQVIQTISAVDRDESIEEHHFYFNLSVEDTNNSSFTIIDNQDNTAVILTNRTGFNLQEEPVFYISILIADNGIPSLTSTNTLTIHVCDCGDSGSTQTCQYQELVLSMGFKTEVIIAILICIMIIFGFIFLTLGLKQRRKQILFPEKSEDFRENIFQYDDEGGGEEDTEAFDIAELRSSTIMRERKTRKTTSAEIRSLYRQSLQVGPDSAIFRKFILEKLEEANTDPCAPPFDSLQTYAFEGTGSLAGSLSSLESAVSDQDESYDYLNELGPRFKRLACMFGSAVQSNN
Method: (§2) The experiment included assaying a subset of anti-CDH19 antibodies against chicken Cadherin19 to determine suitability for binning on these human/chicken chimeras.
as §1

[3] = biological target: T3, ckCDH19(1-43)::FLAG::ckCDH19(44-776) (construct J, Ck EC1-5) (chicken); assay: flow cytometry, transfected 293T cells, 2 mM CaCl2;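 also: binding of Alexa647-labelled anti-CDH19 antibodies to cells expressing human/chicken CDH19 chimeras, read as cell-bound fluorescence, with mock-transfected cells as controls, n.d. meaning not determined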
T3 construct: the entry holds leader (1-43), FLAG and ckCDH19(44-776); leader left out; also called chicken Cadherin19
T3 chain: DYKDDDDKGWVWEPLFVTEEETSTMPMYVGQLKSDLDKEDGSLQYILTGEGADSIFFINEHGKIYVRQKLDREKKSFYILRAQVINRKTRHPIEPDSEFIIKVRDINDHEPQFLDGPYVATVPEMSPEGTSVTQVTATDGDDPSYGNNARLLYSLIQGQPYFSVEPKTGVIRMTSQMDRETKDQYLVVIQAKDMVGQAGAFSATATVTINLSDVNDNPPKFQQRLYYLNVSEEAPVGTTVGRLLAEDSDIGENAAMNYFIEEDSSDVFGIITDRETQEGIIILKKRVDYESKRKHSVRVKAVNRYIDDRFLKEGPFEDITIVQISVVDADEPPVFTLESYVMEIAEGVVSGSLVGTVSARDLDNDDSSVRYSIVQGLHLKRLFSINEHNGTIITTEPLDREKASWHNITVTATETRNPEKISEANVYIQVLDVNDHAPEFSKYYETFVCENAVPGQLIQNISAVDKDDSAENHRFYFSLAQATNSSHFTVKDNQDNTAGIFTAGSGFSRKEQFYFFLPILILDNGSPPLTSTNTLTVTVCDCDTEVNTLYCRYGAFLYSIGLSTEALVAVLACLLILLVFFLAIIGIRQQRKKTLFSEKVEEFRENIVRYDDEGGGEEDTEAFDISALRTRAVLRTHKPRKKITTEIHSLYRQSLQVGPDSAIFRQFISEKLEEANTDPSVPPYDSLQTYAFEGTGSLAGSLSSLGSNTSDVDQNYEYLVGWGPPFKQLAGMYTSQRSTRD
Method: as §2, §1

[4] = biological target: T4, huCDH19(1-43)::FLAG::hu(44-141)::ckCDH19(142-776) (construct K, Hu EC1) (human/chicken chimera); assay: flow cytometry, transfected 293T cells, 2 mM CaCl2;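 also: binding of Alexa647-labelled anti-CDH19 antibodies to cells expressing human/chicken CDH19 chimeras, read as cell-bound fluorescence, with mock-transfected cells as controls, n.d. meaning not determined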
T4 construct: leader (1-43 of the entry) left out; also called huCDH19(44-141)::ckCDH19(142-776)
Method: as §2, §1

[5] = biological target: T5, ckCDH19(1-43)::FLAG::ckCDH19(44-141)::huCDH19(142-249)::ckCDH19(250-776) (construct L, Hu EC2) (human/chicken chimera); assay: flow cytometry, transfected 293T cells, 2 mM CaCl2;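 also: binding of Alexa647-labelled anti-CDH19 antibodies to cells expressing human/chicken CDH19 chimeras, read as cell-bound fluorescence, with mock-transfected cells as controls, n.d. meaning not determined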
T5 construct: leader (1-43 of the entry) left out
T5 chain: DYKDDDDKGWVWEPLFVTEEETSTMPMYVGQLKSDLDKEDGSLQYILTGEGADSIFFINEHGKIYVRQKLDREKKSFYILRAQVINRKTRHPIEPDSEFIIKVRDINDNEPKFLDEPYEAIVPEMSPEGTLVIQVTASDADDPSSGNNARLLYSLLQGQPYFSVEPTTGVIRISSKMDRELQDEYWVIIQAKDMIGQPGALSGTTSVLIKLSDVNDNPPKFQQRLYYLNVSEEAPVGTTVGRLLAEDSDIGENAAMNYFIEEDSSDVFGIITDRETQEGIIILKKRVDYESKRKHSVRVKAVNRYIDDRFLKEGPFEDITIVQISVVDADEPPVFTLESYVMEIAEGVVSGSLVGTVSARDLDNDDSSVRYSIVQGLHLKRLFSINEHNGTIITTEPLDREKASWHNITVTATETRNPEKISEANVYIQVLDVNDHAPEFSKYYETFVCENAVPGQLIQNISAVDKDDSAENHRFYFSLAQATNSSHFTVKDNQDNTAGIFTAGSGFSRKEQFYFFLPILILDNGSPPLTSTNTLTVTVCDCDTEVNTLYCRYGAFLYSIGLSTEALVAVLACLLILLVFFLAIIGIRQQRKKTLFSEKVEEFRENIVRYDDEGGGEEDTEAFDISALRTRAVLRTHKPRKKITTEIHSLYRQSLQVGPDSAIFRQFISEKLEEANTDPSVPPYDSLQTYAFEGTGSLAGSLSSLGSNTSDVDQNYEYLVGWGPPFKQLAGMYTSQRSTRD
Method: as §2, §1

[6] = biological target: T6, muCDH19(44-247)::huCDH19(250-364)::muCDH19(363-770) with Flag tag (construct F, Hu EC3) (human/mouse chimera); assay: flow cytometry, transfected 293T cells
T6 construct: leader left out; the entry starts at residue 44; also called C137911
From the text: (§3) The experiment included assaying the anti-CDH19 antibodies against mouse Cadherin19 to determine suitability for binning on these human/mouse chimeras.

[7] = biological target: huCDH19(44-772) with Flag tag (construct A, Hu EC1-5) (human, UniProt Q9H159 44-772); assay: flow cytometry, transfected 293T cells
From the text: as §3

[8] = biological target: T7, muCDH19(44-139)::huCDH19(142-364)::muCDH19(363-770) with Flag tag (construct E, Hu EC2-3) (human/mouse chimera); assay: flow cytometry, transfected 293T cells
T7 construct: leader left out; the entry starts at residue 44; also called C137847
From the text: as §3

Binder	binding result [1]	binding result [2]	binding result [3]	binding result [4]	binding result [5]	binding result [6]	binding result [7]	binding result [8]
B1	no binding (tested: 5 ug/ml)	no binding (tested: 5 ug/ml)	no binding (tested: 5 ug/ml)	binds	no binding (tested: 5 ug/ml)	–	–	–
B2	–	no binding (tested: 5 ug/ml)	no binding (tested: 5 ug/ml)	binds	no binding (tested: 5 ug/ml)	–	–	–
B3	–	–	–	–	–	binds	binds	binds
B4	–	–	–	–	–	binds	binds	binds
